Measured values from the Human Domainome abundance scans (Beltran et al. 2025).
± gives the uncertainty stated by the source.

Experiment: abundance fitness (aPCA) (normalised: wild type 0, dead -1); higher = more abundant; growth selection in yeast, the domain comes from the species named
Conditions: Homo sapiens

BAG family molecular chaperone regulator 3 P37C, O95817
abundance fitness: 0.143 ± 0.2

BAG family molecular chaperone regulator 3 P37D, O95817
abundance fitness: 0.447 ± 0.16

BAG family molecular chaperone regulator 3 P37E, O95817
abundance fitness: 0.86 ± 0.092

BAG family molecular chaperone regulator 3 P37F, O95817
abundance fitness: 0.528 ± 0.17

BAG family molecular chaperone regulator 3 P37G, O95817
abundance fitness: 0.024 ± 0.084

BAG family molecular chaperone regulator 3 P37H, O95817
abundance fitness: 0.517 ± 0.18

BAG family molecular chaperone regulator 3 P37I, O95817
abundance fitness: 0.485 ± 0.08

BAG family molecular chaperone regulator 3 P37K, O95817
abundance fitness: 0.937 ± 0.12

BAG family molecular chaperone regulator 3 P37L, O95817
abundance fitness: 0.128 ± 0.067

BAG family molecular chaperone regulator 3 P37M, O95817
abundance fitness: 0.465 ± 0.12

BAG family molecular chaperone regulator 3 P37N, O95817
abundance fitness: 0.448 ± 0.2

BAG family molecular chaperone regulator 3 P37Q, O95817
abundance fitness: 0.24 ± 0.16

BAG family molecular chaperone regulator 3 P37R, O95817
abundance fitness: 0.857 ± 0.077

BAG family molecular chaperone regulator 3 P37S, O95817
abundance fitness: 0.7 ± 0.072

BAG family molecular chaperone regulator 3 P37T, O95817
abundance fitness: 0.898 ± 0.11

BAG family molecular chaperone regulator 3 P37V, O95817
abundance fitness: 0.358 ± 0.079

BAG family molecular chaperone regulator 3 P37W, O95817
abundance fitness: 0.115 ± 0.086

BAG family molecular chaperone regulator 3 P37Y, O95817
abundance fitness: 0.573 ± 0.18

BAG family molecular chaperone regulator 3 P52A, O95817
abundance fitness: -0.727 ± 0.16

BAG family molecular chaperone regulator 3 P52C, O95817
abundance fitness: -0.092 ± 0.3

BAG family molecular chaperone regulator 3 P52D, O95817
abundance fitness: -0.542 ± 0.42

BAG family molecular chaperone regulator 3 P52E, O95817
abundance fitness: -0.948 ± 0.38

BAG family molecular chaperone regulator 3 P52G, O95817
abundance fitness: -0.389 ± 0.1

BAG family molecular chaperone regulator 3 P52H, O95817
abundance fitness: -0.542 ± 0.48

BAG family molecular chaperone regulator 3 P52K, O95817
abundance fitness: -0.039 ± 0.22

BAG family molecular chaperone regulator 3 P52L, O95817
abundance fitness: -0.741 ± 0.12

BAG family molecular chaperone regulator 3 P52M, O95817
abundance fitness: -1.07 ± 0.46

BAG family molecular chaperone regulator 3 P52R, O95817
abundance fitness: -0.633 ± 0.12

BAG family molecular chaperone regulator 3 P52S, O95817
abundance fitness: -0.303 ± 0.11

BAG family molecular chaperone regulator 3 P52T, O95817
abundance fitness: -1.12 ± 0.39

BAG family molecular chaperone regulator 3 P52W, O95817
abundance fitness: -0.837 ± 0.22

BAG family molecular chaperone regulator 3 P55A, O95817
abundance fitness: 0.013 ± 0.078

BAG family molecular chaperone regulator 3 P55C, O95817
abundance fitness: 0.133 ± 0.29

BAG family molecular chaperone regulator 3 P55D, O95817
abundance fitness: -0.281 ± 0.39

BAG family molecular chaperone regulator 3 P55E, O95817
abundance fitness: -0.8 ± 0.36

BAG family molecular chaperone regulator 3 P55F, O95817
abundance fitness: -0.012 ± 0.13

BAG family molecular chaperone regulator 3 P55H, O95817
abundance fitness: -0.636 ± 0.46

BAG family molecular chaperone regulator 3 P55I, O95817
abundance fitness: 0.135 ± 0.16

BAG family molecular chaperone regulator 3 P55K, O95817
abundance fitness: -0.094 ± 0.12

BAG family molecular chaperone regulator 3 P55L, O95817
abundance fitness: -0.133 ± 0.095

BAG family molecular chaperone regulator 3 P55M, O95817
abundance fitness: -0.356 ± 0.2

BAG family molecular chaperone regulator 3 P55Q, O95817
abundance fitness: 0.081 ± 0.19

BAG family molecular chaperone regulator 3 P55R, O95817
abundance fitness: -0.306 ± 0.11

BAG family molecular chaperone regulator 3 P55S, O95817
abundance fitness: 0.153 ± 0.17

BAG family molecular chaperone regulator 3 P55T, O95817
abundance fitness: -0.427 ± 0.23

BAG family molecular chaperone regulator 3 P55W, O95817
abundance fitness: -0.508 ± 0.28

BAG family molecular chaperone regulator 3 P55Y, O95817
abundance fitness: -0.018 ± 0.29

BAG family molecular chaperone regulator 3 P59V, O95817
abundance fitness: 0.263 ± 0.34

BAG family molecular chaperone regulator 3 Q11A, O95817
abundance fitness: 0.495 ± 0.34

BAG family molecular chaperone regulator 3 Q11D, O95817
abundance fitness: -0.046 ± 0.4

BAG family molecular chaperone regulator 3 Q11G, O95817
abundance fitness: 0.771 ± 0.065

BAG family molecular chaperone regulator 3 Q11H, O95817
abundance fitness: -0.246 ± 0.26

BAG family molecular chaperone regulator 3 Q11K, O95817
abundance fitness: 1.01 ± 0.19

BAG family molecular chaperone regulator 3 Q11L, O95817
abundance fitness: -0.227 ± 0.32

BAG family molecular chaperone regulator 3 Q11M, O95817
abundance fitness: 1.03 ± 0.39

BAG family molecular chaperone regulator 3 Q11P, O95817
abundance fitness: -0.132 ± 0.41

BAG family molecular chaperone regulator 3 Q11R, O95817
abundance fitness: 0.463 ± 0.11

BAG family molecular chaperone regulator 3 Q11S, O95817
abundance fitness: 0.63 ± 0.11

BAG family molecular chaperone regulator 3 Q11T, O95817
abundance fitness: 0.18 ± 0.49

BAG family molecular chaperone regulator 3 Q11V, O95817
abundance fitness: 0.619 ± 0.1

BAG family molecular chaperone regulator 3 Q11Y, O95817
abundance fitness: 0.795 ± 0.15

BAG family molecular chaperone regulator 3 Q33A, O95817
abundance fitness: 0.032 ± 0.15

BAG family molecular chaperone regulator 3 Q33C, O95817
abundance fitness: -0.352 ± 0.2

BAG family molecular chaperone regulator 3 Q33E, O95817
abundance fitness: 0.11 ± 0.064

BAG family molecular chaperone regulator 3 Q33F, O95817
abundance fitness: -0.183 ± 0.27

BAG family molecular chaperone regulator 3 Q33G, O95817
abundance fitness: 0.128 ± 0.059

BAG family molecular chaperone regulator 3 Q33H, O95817
abundance fitness: -0.708 ± 0.49

BAG family molecular chaperone regulator 3 Q33I, O95817
abundance fitness: -0.499 ± 0.35

BAG family molecular chaperone regulator 3 Q33K, O95817
abundance fitness: 0.035 ± 0.21

BAG family molecular chaperone regulator 3 Q33M, O95817
abundance fitness: -0.29 ± 0.3

BAG family molecular chaperone regulator 3 Q33N, O95817
abundance fitness: -0.357 ± 0.29

BAG family molecular chaperone regulator 3 Q33P, O95817
abundance fitness: -0.591 ± 0.3

BAG family molecular chaperone regulator 3 Q33S, O95817
abundance fitness: -0.265 ± 0.14

BAG family molecular chaperone regulator 3 Q33T, O95817
abundance fitness: -0.583 ± 0.3

BAG family molecular chaperone regulator 3 Q33V, O95817
abundance fitness: -0.428 ± 0.068

BAG family molecular chaperone regulator 3 Q33W, O95817
abundance fitness: -0.384 ± 0.081

BAG family molecular chaperone regulator 3 Q33Y, O95817
abundance fitness: -0.545 ± 0.46

BAG family molecular chaperone regulator 3 R19A, O95817
abundance fitness: -0.071 ± 0.11

BAG family molecular chaperone regulator 3 R19C, O95817
abundance fitness: -0.341 ± 0.19

BAG family molecular chaperone regulator 3 R19D, O95817
abundance fitness: -0.499 ± 0.31

BAG family molecular chaperone regulator 3 R19E, O95817
abundance fitness: 0.208 ± 0.15

BAG family molecular chaperone regulator 3 R19F, O95817
abundance fitness: -0.743 ± 0.32

BAG family molecular chaperone regulator 3 R19G, O95817
abundance fitness: -0.35 ± 0.12

BAG family molecular chaperone regulator 3 R19H, O95817
abundance fitness: -0.399 ± 0.18

BAG family molecular chaperone regulator 3 R19I, O95817
abundance fitness: 0.367 ± 0.17

BAG family molecular chaperone regulator 3 R19K, O95817
abundance fitness: 0.042 ± 0.11

BAG family molecular chaperone regulator 3 R19L, O95817
abundance fitness: -0.455 ± 0.17

BAG family molecular chaperone regulator 3 R19M, O95817
abundance fitness: -0.37 ± 0.28

BAG family molecular chaperone regulator 3 R19N, O95817
abundance fitness: -0.125 ± 0.13

BAG family molecular chaperone regulator 3 R19P, O95817
abundance fitness: -0.253 ± 0.23

BAG family molecular chaperone regulator 3 R19Q, O95817
abundance fitness: -0.333 ± 0.084
